Measured values taken from paper PMC8406324.

Target: HTNV Gn as incorporated in virus-like particles (Hantaan virus (HTNV))
Assay: cryo-EM structure

Substance: HTNV Gn as incorporated in virus-like particles (natural protein)
- stoichiometry N: 4
